Laboratory results taken from PMC9556795, “Micro-electron diffraction structure of the aggregation-driving N terminus of Drosophila neuronal protein Orb2A reveals amyloid-like β-sheets” (The Journal of Biological Chemistry, 2022).

Target: the molecule itself
Experiment: crystal structure; micro-electron diffraction (micro-ED) of M9I microcrystals grown in batch: 6 mg/ml peptide in 1% DMSO mixed 1:1 with 0.1 M sodium phosphate pH 4.6, 1.5 M NaCl, room temperature; 1.05 Å, direct methods

B1: M9I, the first 9 N-terminal residues of Drosophila Orb2A (peptide)
peptide: MYNKFVNFI
notes: Dissolved in 100% DMSO, then diluted in water or buffer; Terminal protecting groups are not mentioned; also called M9I-WT; wildtype M9I; source: synthetic peptide, bought: Genscript (>98% purity)
  binding result: binds
